How the values were obtained:
Filaggrin-2 = molecular target: T1, Filaggrin-2 (human, UniProt Q5D862 1-2391, limits assumed); test: IP from HDF supernatant, LFQ mass spectrometry; ratio against Fc control
T1 construct: also called FLG2

[1] = molecular target: T2, Heat shock protein HSP 90-alpha (human, UniProt P07900 2-732); test: as above
T2 construct: also called HSP90AA1

[2] = molecular target: T3, 60 kDa heat shock protein, mitochondrial (human, UniProt P10809 27-573, limits assumed); test: as above
T3 construct: also called HSPD1; HSP60
T3 sequence (P10809 27-573 limits assumed): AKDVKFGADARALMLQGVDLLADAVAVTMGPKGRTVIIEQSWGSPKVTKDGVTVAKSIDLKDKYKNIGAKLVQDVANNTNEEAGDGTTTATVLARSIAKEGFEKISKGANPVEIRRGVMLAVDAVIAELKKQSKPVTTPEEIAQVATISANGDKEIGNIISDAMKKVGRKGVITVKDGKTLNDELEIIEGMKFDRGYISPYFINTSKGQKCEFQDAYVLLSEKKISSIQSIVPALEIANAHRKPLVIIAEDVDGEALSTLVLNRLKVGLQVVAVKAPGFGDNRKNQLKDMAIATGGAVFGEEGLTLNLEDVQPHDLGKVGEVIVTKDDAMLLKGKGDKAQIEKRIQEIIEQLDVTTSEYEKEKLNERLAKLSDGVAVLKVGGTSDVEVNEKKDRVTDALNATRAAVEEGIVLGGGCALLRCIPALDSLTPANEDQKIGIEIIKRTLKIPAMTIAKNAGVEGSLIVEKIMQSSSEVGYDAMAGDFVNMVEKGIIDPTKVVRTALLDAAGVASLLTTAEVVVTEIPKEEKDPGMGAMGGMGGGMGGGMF

[3] = molecular target: T4, Heat shock 70 kDa protein 1A/B (human, UniProt P0DMV9 2-641); test: as above
T4 construct: also called Heat shock 70 kDa protein 1B; HSPA1B
T4 sequence (P0DMV9 2-641 limits assumed): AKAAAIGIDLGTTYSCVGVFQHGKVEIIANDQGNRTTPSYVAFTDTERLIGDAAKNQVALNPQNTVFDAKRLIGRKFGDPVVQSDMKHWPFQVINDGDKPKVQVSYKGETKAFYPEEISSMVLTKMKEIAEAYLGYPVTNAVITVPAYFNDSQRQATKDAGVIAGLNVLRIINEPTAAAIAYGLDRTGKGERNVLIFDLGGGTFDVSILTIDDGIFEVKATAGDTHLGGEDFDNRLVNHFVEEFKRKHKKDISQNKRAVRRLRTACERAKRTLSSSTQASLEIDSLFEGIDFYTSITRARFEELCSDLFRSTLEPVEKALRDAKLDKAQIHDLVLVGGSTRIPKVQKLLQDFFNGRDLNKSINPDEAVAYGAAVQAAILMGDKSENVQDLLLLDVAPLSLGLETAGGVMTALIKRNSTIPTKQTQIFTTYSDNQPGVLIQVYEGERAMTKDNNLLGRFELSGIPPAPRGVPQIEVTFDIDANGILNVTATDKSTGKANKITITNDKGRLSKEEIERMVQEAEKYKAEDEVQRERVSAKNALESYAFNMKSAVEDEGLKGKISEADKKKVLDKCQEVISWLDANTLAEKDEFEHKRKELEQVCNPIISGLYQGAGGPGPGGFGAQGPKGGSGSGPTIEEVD

[4] = molecular target: T5, Heat shock protein HSP 90-beta (human, UniProt P08238 2-724); test: as above
T5 construct: also called HSP90AB1

[5] = molecular target: T6, Heat shock cognate 71 kDa protein (human, UniProt P11142 2-646); test: as above
T6 construct: also called HSPA8
T6 sequence (P11142 2-646 limits assumed): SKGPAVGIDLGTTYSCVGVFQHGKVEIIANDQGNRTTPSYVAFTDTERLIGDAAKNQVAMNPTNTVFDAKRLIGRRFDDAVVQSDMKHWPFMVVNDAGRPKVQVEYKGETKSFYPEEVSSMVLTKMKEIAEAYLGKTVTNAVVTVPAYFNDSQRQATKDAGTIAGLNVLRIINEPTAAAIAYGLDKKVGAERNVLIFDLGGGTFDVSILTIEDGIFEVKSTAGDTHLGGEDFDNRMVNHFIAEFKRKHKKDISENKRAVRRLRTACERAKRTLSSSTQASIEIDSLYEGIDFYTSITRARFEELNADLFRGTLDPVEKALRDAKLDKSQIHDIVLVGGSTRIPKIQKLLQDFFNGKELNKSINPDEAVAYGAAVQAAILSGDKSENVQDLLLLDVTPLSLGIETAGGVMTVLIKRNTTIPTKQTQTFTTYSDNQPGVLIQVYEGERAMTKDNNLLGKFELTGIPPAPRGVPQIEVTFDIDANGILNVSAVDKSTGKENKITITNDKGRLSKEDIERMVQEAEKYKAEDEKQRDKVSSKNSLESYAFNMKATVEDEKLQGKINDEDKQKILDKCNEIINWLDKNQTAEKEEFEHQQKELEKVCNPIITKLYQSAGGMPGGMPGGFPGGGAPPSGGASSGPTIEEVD

Hornerin = molecular target: T7, Hornerin (human, UniProt Q86YZ3 1-2850, limits assumed); test: as above
T7 construct: also called HRNR
T7 sequence (Q86YZ3 whole entry): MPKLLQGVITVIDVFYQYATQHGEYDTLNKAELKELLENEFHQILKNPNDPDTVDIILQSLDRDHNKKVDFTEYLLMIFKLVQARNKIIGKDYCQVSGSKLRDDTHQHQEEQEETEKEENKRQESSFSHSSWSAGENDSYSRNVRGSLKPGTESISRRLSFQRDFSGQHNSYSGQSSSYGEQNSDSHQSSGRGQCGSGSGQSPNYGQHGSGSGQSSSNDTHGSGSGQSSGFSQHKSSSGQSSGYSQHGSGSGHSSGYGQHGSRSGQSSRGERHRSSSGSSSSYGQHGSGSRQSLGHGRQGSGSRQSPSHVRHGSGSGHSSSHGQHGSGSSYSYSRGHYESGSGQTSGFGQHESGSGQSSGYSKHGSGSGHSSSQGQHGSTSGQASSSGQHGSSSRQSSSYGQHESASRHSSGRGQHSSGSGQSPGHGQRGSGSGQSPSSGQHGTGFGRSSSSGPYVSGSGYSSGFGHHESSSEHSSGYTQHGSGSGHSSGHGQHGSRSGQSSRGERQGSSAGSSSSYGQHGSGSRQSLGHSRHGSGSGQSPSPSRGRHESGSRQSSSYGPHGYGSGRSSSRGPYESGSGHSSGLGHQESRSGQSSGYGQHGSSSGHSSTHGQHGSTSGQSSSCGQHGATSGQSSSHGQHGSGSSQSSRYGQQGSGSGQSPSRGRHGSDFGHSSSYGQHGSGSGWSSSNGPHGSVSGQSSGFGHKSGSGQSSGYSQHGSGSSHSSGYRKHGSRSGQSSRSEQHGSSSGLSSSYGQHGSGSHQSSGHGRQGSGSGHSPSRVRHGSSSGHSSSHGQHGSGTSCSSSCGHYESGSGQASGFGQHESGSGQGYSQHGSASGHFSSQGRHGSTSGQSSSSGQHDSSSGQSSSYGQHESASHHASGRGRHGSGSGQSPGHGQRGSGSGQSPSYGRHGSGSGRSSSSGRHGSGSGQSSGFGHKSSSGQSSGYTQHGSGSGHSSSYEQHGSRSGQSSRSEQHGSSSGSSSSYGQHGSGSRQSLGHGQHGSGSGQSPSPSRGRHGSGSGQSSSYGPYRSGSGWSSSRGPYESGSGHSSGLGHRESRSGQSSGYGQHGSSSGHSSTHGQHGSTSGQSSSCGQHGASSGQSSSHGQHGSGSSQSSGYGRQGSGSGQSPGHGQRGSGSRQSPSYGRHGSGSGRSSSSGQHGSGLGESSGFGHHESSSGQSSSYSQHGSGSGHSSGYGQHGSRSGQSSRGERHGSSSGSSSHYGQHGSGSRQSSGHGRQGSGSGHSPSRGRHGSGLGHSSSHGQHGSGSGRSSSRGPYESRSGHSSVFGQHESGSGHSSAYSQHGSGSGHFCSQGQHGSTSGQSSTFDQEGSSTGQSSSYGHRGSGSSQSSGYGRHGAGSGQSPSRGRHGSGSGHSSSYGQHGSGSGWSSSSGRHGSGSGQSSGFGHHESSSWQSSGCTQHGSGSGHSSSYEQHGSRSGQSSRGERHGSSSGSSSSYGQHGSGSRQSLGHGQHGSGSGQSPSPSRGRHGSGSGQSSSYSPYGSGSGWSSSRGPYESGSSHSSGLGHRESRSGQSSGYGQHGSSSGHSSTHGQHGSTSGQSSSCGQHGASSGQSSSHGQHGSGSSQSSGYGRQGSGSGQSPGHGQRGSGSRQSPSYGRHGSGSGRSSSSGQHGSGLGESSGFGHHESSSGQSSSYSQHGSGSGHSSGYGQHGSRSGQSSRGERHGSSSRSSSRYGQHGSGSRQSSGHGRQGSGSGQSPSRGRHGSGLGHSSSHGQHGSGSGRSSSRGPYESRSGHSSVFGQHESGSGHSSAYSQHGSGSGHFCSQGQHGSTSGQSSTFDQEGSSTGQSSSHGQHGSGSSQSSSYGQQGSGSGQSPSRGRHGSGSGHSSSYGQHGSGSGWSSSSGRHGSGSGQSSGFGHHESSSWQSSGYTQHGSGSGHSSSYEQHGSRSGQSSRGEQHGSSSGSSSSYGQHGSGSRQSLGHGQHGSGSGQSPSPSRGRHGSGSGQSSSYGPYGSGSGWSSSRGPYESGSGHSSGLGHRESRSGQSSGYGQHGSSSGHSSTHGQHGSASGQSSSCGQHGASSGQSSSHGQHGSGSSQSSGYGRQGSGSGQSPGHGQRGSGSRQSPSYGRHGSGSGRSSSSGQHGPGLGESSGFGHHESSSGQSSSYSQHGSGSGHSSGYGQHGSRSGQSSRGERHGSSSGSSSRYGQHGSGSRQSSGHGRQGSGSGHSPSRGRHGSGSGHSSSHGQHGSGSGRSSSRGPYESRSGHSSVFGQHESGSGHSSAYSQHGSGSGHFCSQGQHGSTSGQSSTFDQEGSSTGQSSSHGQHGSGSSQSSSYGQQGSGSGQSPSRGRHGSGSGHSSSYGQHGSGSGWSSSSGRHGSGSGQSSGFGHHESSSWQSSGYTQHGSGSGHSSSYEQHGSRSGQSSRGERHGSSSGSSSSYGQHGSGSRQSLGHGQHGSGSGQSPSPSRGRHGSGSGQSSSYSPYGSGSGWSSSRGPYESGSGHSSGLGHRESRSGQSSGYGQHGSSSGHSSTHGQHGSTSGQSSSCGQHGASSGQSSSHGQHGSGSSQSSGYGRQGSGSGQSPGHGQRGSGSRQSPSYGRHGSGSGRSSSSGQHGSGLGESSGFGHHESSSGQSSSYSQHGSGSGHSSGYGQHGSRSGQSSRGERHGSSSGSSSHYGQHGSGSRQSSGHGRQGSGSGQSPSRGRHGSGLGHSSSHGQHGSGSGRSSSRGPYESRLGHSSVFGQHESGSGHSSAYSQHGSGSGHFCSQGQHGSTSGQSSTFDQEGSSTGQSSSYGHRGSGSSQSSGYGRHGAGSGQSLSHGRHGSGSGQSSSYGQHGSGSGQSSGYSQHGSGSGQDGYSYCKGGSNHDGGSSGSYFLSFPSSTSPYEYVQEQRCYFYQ

[6] = molecular target: T8, LOX catalytic domain (catalytic domain of human LOX, 169-417) (human, UniProt P28300 170-417); test: ELISA, plate coated with LOX catalytic domain
T8 construct: Expressed from pET28 in E. coli BL21 SHuffle, purified on HisTrap and labelled through its His tag for MST
T8 sequence: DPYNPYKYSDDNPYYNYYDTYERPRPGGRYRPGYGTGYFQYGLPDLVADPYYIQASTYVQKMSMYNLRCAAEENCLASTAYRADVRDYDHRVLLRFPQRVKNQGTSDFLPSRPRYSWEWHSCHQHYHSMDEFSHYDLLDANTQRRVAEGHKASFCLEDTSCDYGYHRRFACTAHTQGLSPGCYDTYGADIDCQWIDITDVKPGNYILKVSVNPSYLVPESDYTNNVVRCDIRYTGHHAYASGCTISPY
Method: A ninety-six-well plate (Nunc) was coated with LOX-catalytic domain, HSP70 or BSA at 10 μg/mL. After blocking with 2% BSA in PBS, the plate was incubated with Fc and Fc-LPD for 1 hour at 37° C. Bound antibodies were detected by peroxidase-conjugated antibody goat anti-human (Jackson ImmunoResearch). EC₅₀ was calculated with GraphPad Prism from […] curve fitting analysis.
The pYD5-Fc-LPD plasmid was used as a template in order to create point mutations in the three N-glycosylated sites N81, 97, 144 in the LPD, which are the N346, 362, 409 in our Fc-LPD construct with Q SEQ ID NO: 11. The mutations were performed with site-directed mutagenesis according to kit manufacturer instructions. EC₅₀ of generated Fc-LPD N346, 362, 409Q inhibitor was measured by ELISA (FIG. 1C) ranged from 10 to 2000 nM against the LOX catalytic domain (EC₅₀=58 nmol/L).

B1: Fc-LPD N346, 362, 409Q (Fc fusion)
chain: APPAAGQQQPPREPPAAPGAWRQQIQWENNGQVFSLLSLGSQYQPQRRRDPGAAVPGAAQASAQQPRTPILLIRDQRTAAARTRTAGSSGVTAGRPRPTARHWFQAGYSTSRAREAGASRAEQQTAPGEVPALSNLRPPSRVDGMVGD
notes: Fc-LPD with the three N-glycosylation sites N81, 97, 144 of the LPD (N346, 362, 409 in the construct) changed to Q by site-directed mutagenesis of pYD5-Fc-LPD; also called non-glycosylated form
Ratio Fc-LPD-N346, 409, 456Q:Fc (Filaggrin-2): 0 | Ratio Fc-LPD-N346, 409, 456Q:Fc [1]: 0.2 | Ratio Fc-LPD-N346, 409, 456Q:Fc [2]: 0.1 | Ratio Fc-LPD-N346, 409, 456Q:Fc [3]: 30 | Ratio Fc-LPD-N346, 409, 456Q:Fc [4]: 1.8 | Ratio Fc-LPD-N346, 409, 456Q:Fc [5]: 0.9 | Ratio Fc-LPD-N346, 409, 456Q:Fc (Hornerin): 0.2 | EC50 [6]: 58 nM
